Substrate in data set [1]: CC(=O)C(=O)O
The data set is described as follows: purified protein. The conditions noted are these: 0.2 mM NADPH, 0.2 mM xNA, pH 7, 28 °C. Type of data set: biochemical, Staphylococcus aureus.

Substrate in data set [2]: O=C(O)CCC(=O)C(=O)O
The data set is described as follows: purified protein. To be noted: 0.2 mM NADH, 0.2 mM yNA, pH 8, 28 °C.

B1: SaCntM (Staphylococcus aureus subsp. aureus Mu50) (protein)
chain: MSKLLMIGTGPVAIQLANICYLKSDYEIDMVGRASTSEKSKRLYQAYKKEKQFEVKIQNEAHQHLEGKFEINRLYKDVKNVKGEYETVVMACTADAYYDTLQQLSLETLQSVKHVILISPTFGSQMIVEQFMSKFSQDIEVISFSTYLGDTRIVDKEAPNHVLTTGVKKKLYMGSTHSNSTMCQRISALAEQLKIQLEVVESPLHAETRNSSLYVHPPLFMNDFSLKAIFEGTDVPVYVYKLFPEGPITMTLIREMRLMWKEMMAILQAFRVPSVNLLQFMVKENYPVRPETLDEGDIEHFEILPDILQEYLLYVRYTAILIDPFSQPDENGHYFDFSAVPFKQVYKNEQDVVQIPRMPSEDYYRTAMIQHIGKMLGIKTPMIDQFLTRYEASCQAYKDMHQDQQLSSQFNTNLFEGDKALVTKFLEINRTLS
For B1, in the data set “purified protein [1]”, the Michaelis constant (Km) worked out at 51 ± 6 µM and the catalytic constant (kcat) came out at 1.00 ± 0.02 s⁻¹.

B2: PaCntM (Pseudomonas aeruginosa PAO1) (protein)
chain: MNAADESLGNVLLVGLGAVAIQVALDLRRHGAGRLGALNHPGRRSQRIAEALARGACLQLEGQGQHRWLSGNAALDVFHQDPAELRDDWQTLVLCVPADSYLDVVRGLPWERLGGVRTLLLVSAFIGANLLVRSALPAGCQATVLSLSSYYAATKVIDETQPLRALTKAVKRRVYLGSSRPDCPARETWRRVLAGSGVEVVPLATPEAAEGRNVTTYVHSPFFLGEFALARILSEQGPPGFMYKLYPEGPITPGAIGAMRRLWCELSELLRRMGAEPLNLLRFLNDDNYPVHETMLPRASIDGFAEAGAERQEYLLFVRYAALLVDPFSPADEQGRHFDFSAVPFRRVSRDEDGLWRLPRVPLEDYRKLALIVALAAHFDLAMPQARSLLASYENAVSRFIDCQGASQCHPSLYPIDSRPAADAIYRQWCSTC
For the protein B2, in the data set “purified protein [2]”, the Km is reported as 133 ± 39 µM and the kcat stood at 0.27 ± 0.02 s⁻¹.

In general, Km refers to the substrate concentration at which the rate is half of its maximum. By kcat is commonly meant the number of substrate molecules converted per active site and unit of time at saturation.

The record behind these values is article doi:10.1101/641969v1.
